Results from US10772972B2, “Anti-STEAP2 antibody drug conjugates, and compositions and uses thereof” (Regeneron Pharmaceuticals, Inc., priority 2016, dated 2020).
“And” between values parts separate entries of the source, which are not always exact repeats. Equal entries are not always repeated.

Columns and labels:
[1] = test system: Raji cells (STEAP2 negative); test: FACS binding to STEAP2-negative Raji cells; conditions: human-Fc antibodies
Experimental: (§1) The ability of anti-STEAP2 antibodies to selectively bind to human six-transmembrane epithelial antigen of prostate 2 (STEAP2) endogenously expressing cell lines was determined via FACS analysis.
(§2) Briefly, 1×10^5 cells were incubated with 10 μg/ml of anti STEAP2 antibodies, or isotype control antibodies for 30 min on ice in antibody dilution buffer. Following one wash with antibody dilution buffer, cells were incubated with 10 μg/ml of PE conjugated anti-human or anti mouse Fc secondary antibodies for 30 min on ice. Following one additional wash, samples were incubated with Cytofix (1% formaldehyde) for 20 minutes. After one final wash, samples were filtered through a Pall 96 well filtration block, run on a Hypercyt® cytometer and analyzed in ForeCyt™ (IntelliCyt, Albuquerque, N. Mex.). Mean fluorescence intensities (MFI) were expressed as fold change above unstained levels (background). The average fold above background at antibody concentrations of 100-300 nM were determined. For cell binding EC50 determinations, mAb concentrations ranged from 300 nM to […] and EC50 values were determined from a four-parameter logistic equation over a 12-point response curve (GraphPad Prism).

[2] = test system: FADU cells (STEAP2 negative); test: FACS binding to STEAP2-negative FADU cells; conditions: human-Fc antibodies
Experimental: as §1, §2

cynomolgus T cells = test: FACS binding titration of STEAP2xCD3 bispecifics on cynomolgus T cells; conditions: 66.6 nM to 0.001 nM, 30 minutes at 4° C.
Experimental: FACS Binding Titration on Jurkat Cells, PC3_STEAP2/1 Cells and cynomolgus T Cells: Flow cytometric analysis was utilized to determine binding of STEAP2×CD3 bispecific antibodies to Jurkat, PC3_STEAP2/1 chimeric and cynomolgus T cells, followed by detection with a phycoerythrin (PE)-labeled anti-human IgG antibody. Briefly, 2×10^5 cells/well were incubated for 30 minutes at 4° C. with a serial dilution of STEAP2×CD3 bispecific antibodies or control antibody (a human IgG1 antibody that binds a feline antigen with no cross-reactivity to STEAP2 or human or cynomolgus CD3) ranging from 66.6 nM to 0.001 nM. After incubation, the cells were washed twice with cold PBS containing 1% filtered FBS and a PE-conjugated anti-human secondary antibody was added to the cells and incubated for an additional 30 minutes. Wells containing no antibody or secondary antibody only were used as a control. After incubation, cells were washed, re-suspended in 200 μL cold PBS containing 1% filtered FBS and analyzed by flow cytometry on a BD FACS Canto II.

[3] = test system: human prostate cancer C4-2 cells (xenograft); test: C4-2/human PBMC co-implant xenograft in NSG mice, immediate dosing; type: in vivo, mouse; conditions: C4-2/NSG
Excerpt: To assess the in vivo efficacy of the anti-STEAP2/anti-CD3 bispecifics in human tumor xenograft studies, NOD scid gamma (NSG) mice (Jackson Laboratories, Bar Harbor, Me.) were co-implanted with human peripheral blood mononuclear cells (PBMCs; ReachBio LLC., Seattle, Wash.) along with human prostate cancer C4-2 cells (MD Anderson Cancer Center, Houston Tex.) which endogenously express STEAP2.
Briefly, 5.0×10^6 C4-2 cells were co-implanted subcutaneously (s.c.) with 1.25×10^6 human PBMCs in a 50:50 mix of matrigel matrix (BD Biosciences, San Jose, Calif.) into the right flank of male NSG mice. Mice were treated intraperitoneally (i.p.) on the day of implantation (immediate treatment model) with anti-STEAP2/anti-CD3 bispecifics BSSTEAP2/CD3-001, BSSTEAP2/CD3-002 or BSSTEAP2/CD3-003, or an isotype control, at a dose of 0.1 or 0.01 mg/kg (N=5 mice/group).
Tumor size was measured 2×/week using calipers and tumor volume calculated as Volume=(length×width^2)/2. Data is shown as tumor size (mm^3) at study endpoint, 46 d post-tumor implantation (Table 7).

monkey PBMCs = test: T cell proliferation assay, cynomolgus PBMC; type: cell-based; conditions: for Cynomolgus PBMC proliferation activity (in words): across donors tested
Experimental: Thawed human or freshly isolated monkey PBMCs (50,000 cells/well) were incubated with 3-fold (human, concentration range: 5E-10M to 2.82E-15M; cynomolgus, concentration range: 1E-09M to 4.57E-13M) serial dilutions of STEAP2×CD3 bispecifics or isotype control in complete medium (RPMI supplemented with 10% FBS, 100 U/mL penicillin, 100 μg/mL streptomycin, 292 μg/mL L-glutamine) and a fixed concentration (human: 200 ng/mL, cyno: 500 ng/mL) of a commercial anti-CD28 antibody (Biolegend, Catalog #302914) in white flat bottom 96-well plates for 72 hours at 37° C. Isolated monkey PBMCs were from two donors (identified as mk8781M or mk9381M). Following incubation, CellTiter Glo® (Promega, Cat #7573) was added and luminescence, as readout for cell viability, was measured using a VICTOR X5 multi-label plate reader. Cell titer was calculated by dividing the luminescence of stimulated cells by the baseline luminescence of unstimulated cells.

[4] = test system: C4-2 cells (high-STEAP2 expressing); test: Internalization and total binding on C4-2 cells (imaging, qualitative score); type: cell-based, human; set-up: key: − (no internalization or binding); +(weak internalization or binding); ++(moderate internalization or binding); +++(robust internalization or binding); conditions: 10 μg/ml antibody
Experimental: Briefly, 20,000 C4-2 cells were seeded in PDL coated 96 well plates. The next day, cells were incubated with anti-human STEAP2 antibodies (10 μg/ml) for 30 min on ice followed by two PBS washes. Cells were then incubated with alexa488-conjugated anti-hFc Fab secondary antibody for 30 minutes on ice, followed by two additional PBS washes. Antibodies were allowed to internalize for 1 h at 37° C. in internalization buffer (PBS+2% FBS) or were maintained at 4° C. Cells were fixed in 4% formaldehyde, nuclei were stained with DRAQ5 (Cell signaling), and images were acquired on the ImageXpress micro XL (Molecular Devices).
A qualitative visual assessment of the total binding intensity and the intensity of antibodies that had internalized into vesicles was performed and scored according to the following criteria: − (no internalization or binding), +(weak internalization or binding), ++(moderate internalization or binding) and +++(robust internalization or binding).

B1: H1H7810N: human-Fc anti-STEAP2 antibody; variable regions presumably as H2M7810N (antibody, V domains shown)
VH: QVQLVESGGGVVQPGRSLRLSCAVSGFTSSTYGMNWVRQAPGKGLEWVAVISYDGSNKYYADSVKGRFTISRDNSKNTLYLQMNSLRPEDTAVYYCARGRYFDLWGRGTLVTVSS
VL: DIQMTQSPSTLSASVGDRVTITCRASQIISSWLAWYQQKPGKAPKLLIYKASSLASGVPSRFSGSGSGTEFTLTISSLQPDDFATYYCQQYKSYSYTFGQGTKLEIK
For B1, the “Raji Avg F.A.B (Fold Above Background)” value [1] was 2 fold.

B2: H1H7811N: human-Fc anti-STEAP2 antibody; variable regions presumably as H2M7811N (antibody, V domains shown)
VH: QVQLVESGGGVVQPGRSLRLSCAVSGFTSSTYGMNWVRQAPGKGLEWVAVISFDGSNKYYADSVKGRFTISRDNSKNTLYLQMSSLRPEDTAVYYCARGRYFDLWGRGTLVTVSS
VL: DTQMTQSPSTLSASVGDRVTITCRASQIISSWLAWYQQKPGKAPKLLIYKASSLASGVPSRFSGSGSGTEFTLTISSLQPDDFATYYCQQYKSYSYTFGQGTNLEIK
B2 was tested, and the “FADU Avg F.A.B (Fold Above Background)” value [2] was 3 fold and the “Raji Avg F.A.B (Fold Above Background)” value [1] was 4 fold.

B3: BSSTEAP2/CD3-001: STEAP2×CD3 bispecific: anti-STEAP2 HCVR H2M11162N (SEQ 250), anti-CD3 HCVR CD3-VH-G (SEQ 1730), common LCVR SEQ 258 (antibody, V domains shown)
VH 1: QVQLQQSGPGLVKPSQTLSLTCAISGDSVSSNRAAWNWIRQSPSRGLQWLGRTYYRSKWYNDYAVSLRSRITINPVTSKNQVALHMNSVTPEDTAVYYCARAGIVVVPGPETFYYYDHGLDVWGQGTTVTVSS
VH 2: EVQLVESGGGLVQPGRSLRLSCAASGFTFDDYSMHWVRQAPGKGLEWVSGISWNSGSKGYADSVKGRFTISRDNAKNSLYLQMNSLRAEDTALYYCAKYGSGYGKFYHYGLDVWGQGTTVTVSS
VL: DIQMTQSPSSLSASVGDRVTITCRASQSIRSYLNWYQQKPGKAPELLIHAASSLQSGVPSRFSGSGSGTDFTLTISSLQPEDFASYYCQQSYSAPPITFGQGTRLEIK
In the case of B3, the EC50 (cynomolgus T cells) is reported as 7.27 nM, the “Tumor Size (mm^3) 46 d post-tumor implantation (mean ± SD)” value ([3]; 0.01 mg/kg i.p. on day of implantation) is reported as 23.0 ± 220 mm^3 and the “Tumor Size (mm^3) 46 d post-tumor implantation (mean ± SD)” value ([3]; 0.1 mg/kg i.p. on day of implantation) is reported as 18.0 ± 14.0 mm^3. The “Tumor growth compared to isotype control at study endpoint (in words)” value ([3]; 0.1 or 0.01 mg/kg) was “significantly suppressed tumor growth”, the “Cynomolgus PBMC proliferation activity (in words)” value (monkey PBMCs) was “induced robust cynomolgus PBMC proliferation in all donors tested” and the EC50 (monkey PBMCs; donor mk9381M, anti-CD28 500 ng/mL, 72 hours, read-out: Cyno PBMC Proliferation [M] (donor)) was 4.6e-12 M and 4.59e-12 M.

B4: BSSTEAP2/CD3-007: STEAP2×CD3 bispecific: anti-STEAP2 H1H11162 (SEQ 250), anti-CD3 H1H7195P (SEQ 1450), common LCVR SEQ 258 (antibody, V domains shown)
VH 1: QVQLQQSGPGLVKPSQTLSLTCAISGDSVSSNRAAWNWIRQSPSRGLQWLGRTYYRSKWYNDYAVSLRSRITINPVTSKNQVALHMNSVTPEDTAVYYCARAGIVVVPGPETFYYYDHGLDVWGQGTTVTVSS
VH 2: EVQLVESGGGLVQPGRSLRLSCAASGFTFADYTMHWVRQAPGKGLEWVSDISWNSGSIAYADSVKGRFTISRDNAKNSLYLQMNSLRTEDTAFYYCAKDSRGYGHYKYLGLDVWGQGTTVTVSS
VL: DIQMTQSPSSLSASVGDRVTITCRASQSIRSYLNWYQQKPGKAPELLIHAASSLQSGVPSRFSGSGSGTDFTLTISSLQPEDFASYYCQQSYSAPPITFGQGTRLEIK
For B4, the EC50 (cynomolgus T cells) was 17.3 nM and the “Cynomolgus PBMC proliferation activity (in words)” value (monkey PBMCs) was “donor dependent”.

B5: BSSTEAP2/CD3-009: STEAP2×CD3 bispecific: anti-STEAP2 H1H11164 (SEQ 282), anti-CD3 H1H7208P (SEQ 1490), common LCVR SEQ 290 (antibody, V domains shown)
VH 1: QVQLQQSGPGLVKPSQTLSLTCVISGDSVSTNSAAWNWIRQSPSRGLEWLGRTYYRSKWYNDYAVSVRSRITINPVTSKNQVALHLNSVTPEDTAVYYCARAGIVVVPGPETYYYYYHGLDVWGQGTTVTVSS
VH 2: QVQLVESGGGLVHPGRSLRLSCAASGFKFDDYTMHWVRQAPGKGLEWVSDISWNSGSKGYADSVKGRFTISRDNAKDSLYLQMDSLRAADTAFYYCAKDKSGYGHFYYYAMDVWGQGTTVTVSS
VL: DIQMTQSPSSLSASVGDRVTITCRASQNIRSYLNWYQQKPGKAPKLLIHVASSLQSGVPSRFSGSGSGTDFTLTISSLQPEDFATYYCQQSYSTPPITFGHGTRLEIK
In the case of B5, the “Cynomolgus T cells EC50 [M]” value (cynomolgus T cells) is reported as “No Binding” and the “Cynomolgus PBMC proliferation activity (in words)” value (monkey PBMCs) is reported as “no activity”.

B6: BSSTEAP2/CD3-005: STEAP2×CD3 bispecific: anti-STEAP2 H1H11162 (SEQ 250), anti-CD3 H1H7208P (SEQ 1490), common LCVR SEQ 258 (antibody, V domains shown)
VH 1: QVQLQQSGPGLVKPSQTLSLTCAISGDSVSSNRAAWNWIRQSPSRGLQWLGRTYYRSKWYNDYAVSLRSRITINPVTSKNQVALHMNSVTPEDTAVYYCARAGIVVVPGPETFYYYDHGLDVWGQGTTVTVSS
VH 2: QVQLVESGGGLVHPGRSLRLSCAASGFKFDDYTMHWVRQAPGKGLEWVSDISWNSGSKGYADSVKGRFTISRDNAKDSLYLQMDSLRAADTAFYYCAKDKSGYGHFYYYAMDVWGQGTTVTVSS
VL: DIQMTQSPSSLSASVGDRVTITCRASQSIRSYLNWYQQKPGKAPELLIHAASSLQSGVPSRFSGSGSGTDFTLTISSLQPEDFASYYCQQSYSAPPITFGQGTRLEIK
For B6, the “Cynomolgus T cells EC50 [M]” value (cynomolgus T cells) was “No Binding” and the “Cynomolgus PBMC proliferation activity (in words)” value (monkey PBMCs) was “no activity”.

B7: H1H11164N: human-Fc anti-STEAP2 antibody, HCVR/LCVR SEQ ID NOs 282/290 (antibody, V domains shown)
VH: QVQLQQSGPGLVKPSQTLSLTCVISGDSVSTNSAAWNWIRQSPSRGLEWLGRTYYRSKWYNDYAVSVRSRITINPVTSKNQVALHLNSVTPEDTAVYYCARAGIVVVPGPETYYYYYHGLDVWGQGTTVTVSS
VL: DIQMTQSPSSLSASVGDRVTITCRASQNIRSYLNWYQQKPGKAPKLLIHVASSLQSGVPSRFSGSGSGTDFTLTISSLQPEDFATYYCQQSYSTPPITFGHGTRLEIK
modifications: human Fc
In the case of B7, the “FADU Avg F.A.B (Fold Above Background)” value [2] is reported as 3 fold, the “Internalization (37° C., 1 h) Qualitative Score” value [4] is reported as “+++” and the “Total Binding (4° C.) Qualitative Score” value [4] is reported as “+++”.
